Tests used:
[1] = molecular target: human C-reactive protein (human) (UniProt P02741); experiment: mass photometry; in ammonium acetate; decamer to pentamers
[2] = molecular target: human C-reactive protein (human) (UniProt P02741); experiment: native MS; 0.5, 1 and 7 uM, ammonium acetate; decamer to pentamers
[3] = molecular target: human C-reactive protein (human) (UniProt P02741); experiment: mass photometry; nanohole-PEG surface (10 ug cm^-2 of 100 nm SNPs), PBS pH 7.2, across different analyte concentrations (500 nM shown), at equilibrium; decamer to pentamers, KD = [monomer]^2/[dimer] with the pentamer as the monomer

Kd [1]: 3.4 µM | Kd [2]: 2460 nM | Kd [3]: 2600 nM | stoichiometry N [3]: 10
Substance: human C-reactive protein (from UniProt P02741 19-224) (natural protein)

Reference: PMC11342371
